Data taken from patent US12276665B2, “Methods for screening and identifying agents that inhibit or modulate the nuclear egress complex of herpesviruses” (priority 2018, dated 2025).
Non-standard residues stand in square brackets, D forms with d. Residues, ends and D or L forms follow the SMILES beside them. *: point of attachment. Biotin = O=C1N[C@H]2[C@H](CS[C@H]2CCCCC(=O)*)N1; AEEA = NCCOCCOCC(=O)O

Tests used:
[1] = target: pUL50-pUL53 interaction (HCMV NEC) (Human cytomegalovirus, UniProt P16791); experiment: competitive binding assay
Procedure: These experiments were designed to address the peptide-protein interactions for each virus, as well as the ability of the hook peptides and proteins to cross-interact with the groove proteins of the respective other virus.
After blocking with BSA plates were incubated with 50 μL/well of inhibitor solutions at different concentration ranges, and 50 μL/well of His-tagged pUL50 (0.16 μg/mL) and BFRF1 (5 μg/mL), respectively. His-tagged pUL50 and BFRF1 were detected and plates developed as described above. IC50-values were determined using the regression wizard of GraphPad Prism. All data points present means of duplicates. Inhibition was calculated according to the following formula: % Inhibition=[1−(Apeptide−Ablank1)/(A100%−Ablank2)]×100, in which “100%” is a sample without inhibitor, “blank1” is a sample without coated hook protein and “blank2” is a sample without coated hook protein and without inhibitor.

pUL53 = pUL53 (Human cytomegalovirus, UniProt P16794); conditions: ratio of EC50 values
Procedure: Plates were washed four times with 0.01% Tween 20 in 0.1 M phosphate buffer pH 7.2 (300 μL/well) after each incubation step. […] All data points present means of duplicates.

HCMV pUL53 = HCMV pUL53 (Human cytomegalovirus, UniProt P16794); conditions: 293T cells, transient transfection
Procedure: CoIP analyses were performed to investigate specific protein-protein interactions (Bannister and Kouzarides, 1996). To this end, 293T cells (5×10^6) were transfected with the plasmids coding for the proteins of interest. One day before CoIP, 50 mg/ml protein A sepharose or 25 μl of dynabeads Protein A were incubated with the appropriate antibody in 500 μl CoIP buffer at 4° C. overnight. Two or three dpt cells were harvested. Lysis was performed using 500 μl CoIP buffer containing protease inhibitors and PMSF on ice for 20 min, sonificated (20 impulses, 80%) and centrifuged (14000 rpm, 10 min, 4° C.). For expression controls 50 μl aliquots of each supernatant were taken and boiled in 50 μl 2× boiling mix for 10 min at 95° C. The antibody-loaded dynabeads or sepharose beads (washed three times with CoIP buffer) were incubated with the lysates for 1.5 h at 4° C. Thereafter, samples were washed with CoIP buffer five times, resuspended in 30 μl 2× boiling mix and boiled 10 min at 95° C. Separation and analyzation of protein complexes were performed using SDS-PAGE and Wb.
Protein samples obtained from CoIP or cell lysates were separated by SDS-PAGE and transferred to a nitrocellulose membrane by electroblotting (200-300 mA for 80 min). […] Finally, the membranes were washed again three times with PBSo over 30 min, shortly incubated within a freshly prepared ECL solution (10 ml ECL solution A, 100 μl ECL solution B and 3.1 μl H2O2) and the proteins were detected by the use of the FUJIFILM Luminescent Image Analyzer LAS-1000 (FUJIFILM Europe GmbH, Düsseldorf, Germany). […]
At three dpt, cells were lysed and HA-tagged proteins were precipitated using pAb-HA or a rabbit antibody Fc fragment as specificity control. […] Lysate controls taken prior to the IP and CoIP samples were subjected to standard Wb analysis and protein expression was analyzed using tag- or protein-specific antibodies.

VZV Orf27 = target: T1, VZV Orf27 (Varicella-zoster virus, UniProt P09283); experiment: coimmunoprecipitation (CoIP), proteins from transient transfection; format: binding; conditions: 293T cells
T1 construct: expressed in transfected cells; host or cells: 293T
Excerpt: (§1) Two or three dpt cells were harvested.

EBV BFLF2 = target: T2, EBV BFLF2 (Epstein-Barr virus, UniProt P0CK47); experiment: as above; format: binding; conditions: 293T cells
T2 construct: expressed in transfected cells; host or cells: 293T
T2 sequence (P0CK47 whole entry, looked up): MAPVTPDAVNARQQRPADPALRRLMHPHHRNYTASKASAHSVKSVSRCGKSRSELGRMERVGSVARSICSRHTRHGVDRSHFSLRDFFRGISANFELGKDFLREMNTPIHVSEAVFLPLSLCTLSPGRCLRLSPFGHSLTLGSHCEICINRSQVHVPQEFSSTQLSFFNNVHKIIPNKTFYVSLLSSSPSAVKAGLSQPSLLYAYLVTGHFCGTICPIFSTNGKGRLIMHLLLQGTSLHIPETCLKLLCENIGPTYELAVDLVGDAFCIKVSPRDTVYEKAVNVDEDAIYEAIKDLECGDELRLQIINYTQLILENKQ
Excerpt: as §1

MCMV pM53 = experiment: as above; format: binding; conditions: 293T cells
Excerpt: as §1

## CC[C@H](C)[C@H](NC(=O)[C@H](C)NC(=O)[C@H](CCSC)NC(=O)[C@H](CCCCN)NC(=O)[C@H](CCSC)NC(=O)[C@H](CCSC)NC(=O)[C@H](CC(N)=O)NC(=O)[C@H](CC(C)C)NC(=O)[C@H](Cc1ccc(O)cc1)NC(=O)[C@H](CCCCN)NC(=O)[C@H](CC(C)C)NC(=O)[C@H](CCC(=O)O)NC(=O)[C@H](CC(C)C)NC(=O)[C@H](CCC(=O)O)NC(=O)[C@@H]1CCCN1C(=O)[C@H](Cc1c[nH]cn1)NC(=O)[C@H](CCC(=O)O)NC(=O)[C@H](CCCNC(=N)N)NC(=O)[C@H](Cc1ccccc1)NC(=O)[C@@H](NC(=O)[C@H](CC(=O)O)NC(=O)[C@H](Cc1c[nH]cn1)NC(=O)[C@H](CC(C)C)NC(=O)[C@H](CC(=O)O)NC(=O)[C@H](Cc1c[nH]cn1)NC(=O)[C@H](CC(C)C)NC(=O)[C@@H](NC(=O)[C@H](CC(C)C)NC(C)=O)[C@@H](C)O)[C@@H](C)CC)C(=O)N[C@H](C(=O)NCCOCCOCC(=O)N[C@@H](CCCCNC(=O)CCCC[C@@H]1SC[C@@H]2NC(=O)N[C@@H]21)C(N)=O)[C@@H](C)O [HCMV hook peptide]
[1]
  IC50: 114 nM

## pUL50: HCMV groove protein of the core NEC; His-tagged in ELISA, HA-tagged in CoIP
pUL53
  fold stronger interaction than the BFRF1-BFLF2 interaction of EBV: approximately 20 fold
HCMV pUL53
  CoIP interaction with HCMV pUL53: +
VZV Orf27
  CoIP interaction with VZV Orf27: −
EBV BFLF2
  CoIP interaction with EBV BFLF2: −
MCMV pM53
  CoIP interaction with MCMVpM53: +

## CC[C@H](C)[C@H](NC(=O)CNC(=O)[C@H](CCCNC(=N)N)NC(=O)[C@H](Cc1ccccc1)NC(=O)[C@H](Cc1ccccc1)NC(=O)[C@H](CC(=O)O)NC(=O)[C@H](CCCNC(=N)N)NC(=O)[C@H](CC(C)C)NC(=O)[C@H](CO)NC(=O)[C@H](Cc1ccccc1)NC(=O)[C@H](Cc1c[nH]cn1)NC(=O)[C@H](CO)NC(C)=O)C(=O)N[C@@H](CO)C(=O)N[C@@H](C)C(=O)N[C@@H](CC(N)=O)C(=O)N[C@@H](Cc1ccccc1)C(=O)N[C@@H](CCC(=O)O)C(=O)N[C@@H](CC(C)C)C(=O)NCC(=O)N[C@@H](CCCCN)C(=O)N[C@@H](CC(=O)O)C(=O)N[C@@H](Cc1ccccc1)C(=O)N[C@@H](CC(C)C)C(=O)N[C@@H](CCCNC(=N)N)C(=O)N[C@@H](CCC(=O)O)C(=O)N[C@@H](CCSC)C(=O)N[C@@H](CC(N)=O)C(=O)N[C@H](C(=O)N1CCC[C@H]1C(=O)NCCOCCOCC(=O)N[C@@H](CCCCNC(=O)CCCC[C@@H]1SC[C@@H]2NC(=O)N[C@@H]21)C(N)=O)[C@@H](C)O [EBV hook peptide] (Ac-SHFSLRDFFRGISANFELGKDFLREMNTP[AEEA]K(Biotin)-NH2)
[1]
  IC50: 2600 nM
[1]; ratio of IC50 values
  fold lower inhibitory activity than the HCMV counterpart (hook protein or hook peptide): approximately 22 fold

B1: BFRF1: EBV groove protein of the core NEC; His-tagged in ELISA, HA-tagged in CoIP (protein)
chain: MASPEERLLDELNNVIVSFLCDSGSLEVERCSGAHVFSRGSSQPLCTVKLRHGQIYHLEFVYKFLAFKLKNCNYPSSPVFVISNNGLATTLRCFLHEPSGLRSGQSGPCLGLSTDVDLPKNSIIMLGQDDFIKFKSPLVFPAELDLLKSMVVCRAYITEHRTTMQFLVFQAANAQKASRVMDMISDMSQQLSRSGQVEDTGARVTGGGGPRPGVTHSGCLGDSHVRGRGGWDLDNFSEAETEDEASYAPWRDKDSWSESEAAPWKKELVRHPIRRHRTRETRRMRGSHSRVEHVPPETRETVVGGAWRYSWRATPYLARVLAVTAVALLLMFLRWT
modifications: Human herpesvirus 4
notes: EBV groove protein of the core NEC; His-tagged in ELISA, HA-tagged in CoIP
HCMV pUL53
  CoIP interaction with HCMV pUL53: −
EBV BFLF2
  CoIP interaction with EBV BFLF2: +

B2: MCMV pM50: MCMV core NEC protein, HA-tagged, transiently expressed (protein)
chain: MEIDKNVGADLISNTRRILRLDENELRITDTALICKNPNYSLCDAMLTTDIVYPVEYLLSYWECRSGRTACFVFKNTGCRVSLSCYIGFPERLKDLKRVCDFNFLSVNEALVVTLADIERIKPCDKGVLTNCVVRKSNSGMSYNIEVVAFGPDNEAEYQALLRDIYARRMTSVPTDCGSLICRRARCLAAAPPRRPPPPPPPGQRWGSLRKHGPVLTRRYAGGGGAAKNQPAAASPTSTSTSSPAAPSRDQDQTQRPPPAGDTNVTAAETTYSERTISFLTRHANAIHCALILAAAIALVLLWLLYWHAARSAGHP
modifications: Mouse cytomegalovirus 1
notes: MCMV core NEC protein, HA-tagged, transiently expressed
HCMV pUL53
  CoIP interaction with HCMV pUL53: +
EBV BFLF2
  CoIP interaction with EBV BFLF2: −
MCMV pM53
  CoIP interaction with MCMVpM53: +
